Experimental data taken from article PMC4557955.
pKd: −log10 of the molar value.

Test system: BPs gp33103 repressor (short, prophage-encoded form) (Mycobacteriophage BPs)
Test: EMSA
Details: EMSA: 20 mM Tris pH 7.5, 10 mM EDTA, 25 mM NaCl, 10 mM spermidine, 1 mM DTT, 1 ug calf thymus DNA in 10 ul, room temperature 30 min, 5% native gel …

Substance	pKd
CAAACGCAAAAGTTCGGGCGTGGCGCATTTTCCAATAGAC (double strand) [TIR-5]	4.90
TCGGACATGGTGAACGCTTGCGACATATGTCGCCAATGTGTGCATCTTTGCA (double strand) [O55-L]	5.07
60-61 intergenic region (O61)	5.47
5-6 intergenic region (O6)	5.56
GCATCACGGACGCTGCTATCCGACATATGTCGTGGATGATCGGGATATGGCC (double strand) [O27-R]	4.96
GCATTTTCCAATAGACCGCATATGTCGCTATGTTGGTGCACA (double strand) [O27-L]	4.41
54-55 intergenic region (O55)	5.59
TCCAATAGACGACATATGTCGCT (double strand) [TIR-6]	5.02
GCATTTTCCAATAGACGACATATGTGCCTATGTTGGTGCACA (double strand) [O61-R]	4.71
33-34 intergenic region wild type (366 bp)	5.58
26-27 intergenic region (O27)	6.05
CACACACGACGCTTGCACCGCGACATATGTCGGTTTTGCAGACGTGCAGGTT (double strand) [O6-L]	4.98
